# B1: TPR t1 (parent)
# chain: GACCAAUCUGCCCUCAGAGCUCGAGAACAUCUUCGGAUGCAGAGGAGGCAGGCUUCGGUGGCGCGAUAGCGCCAACGUCCUCAACCUCCAAUGCAUCCCACCACAUGAUGAUGCCUGAAGAGCCUUGGUUUUUUG
# Variants of: B1
# Assay: polymerase ribozyme fitness, log enrichment relative to wild type (log ratio); higher = more active; in vitro selection for triplet polymerase activity
# Method in brief: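 Mutant libraries were PCR-built and transcribed for each subunit of a heterodimeric triplet polymerase ribozyme and selected for one round in triplicate at −7 °C, frozen, before gel excision of extended constructs and streptavidin-bead capture. Input and output libraries were Illumina-sequenced, keeping genotypes with ≥10 input reads and ≥1 read per output. Fitness is a logarithmic ratio of genotype to wild-type enrichment, in base 2, using inverse-variance-weighted replicate averages.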
row,Variant,polymerase ribozyme fitness (log ratio)
1,G10U C76A,-1.51
2,G10U C82G C85U G120C,0.866
3,G10U C82G G117C,-4.93
4,G10U C94U C101A C104A,-3.21
5,G10U G17A,-3.07
6,G10U G17A C56A C89G G117A,-3.05
7,G10U G19C A37U C72A C73U C123G U130C,-2.79
8,G10U G36A C64G A83G C94G G110U,-7.24
9,G10U G36A G61C,-3.3
10,G10U G39A C98U,-1.4
11,G10U G48U G93A C123G,0.384
12,G10U G52A C79G A119U,-0.109
13,G10U G57A G60A,-0.571
14,G10U G63A U112A,-0.981
15,G10U G69A,-3.09
16,G10U G71A A103U C114U,-4.96
17,G10U G71C,-1.29
18,G10U G110A,-1.35
19,G10U G113U,-2.76
20,G10U U14G U116C,-1.69
21,G10U U21A G60U G71A C89U C101U C124A,-6.77
22,G10U U55C C123A,0.286
23,G10U U55G A111C,-0.134
24,G10U U78C,-0.395

row,Variant,polymerase ribozyme fitness (log ratio)
1,G10U U78C C88G,-1.13
2,G10U U87A U92C A121G U132C,1.22
3,G10U U106A,0.263
4,G10U U112G,0.352
5,G10U U129C,-1.9
6,C11A A18U G127A,-4.94
7,C11A A18U U21A C56U,-3.04
8,C11A A37C U54C,-2.16
9,C11A A41C G58A U96A,-3.23
10,C11A A41U G45C,-3.39
11,C11A A46C G61U C94A,-2.34
12,C11A A75U C79U C85A,-2.71
13,C11A A105C,-3.07
14,C11A A121U,0.371
15,C11A C12A G71A C89G A90G C101U U133G,-4.22
16,C11A C12G C20U U55A C56U G93C,-4.53
17,C11A C12U G71U A84C,-1.73
18,C11A C15U G44U C72A U129A U132C,-5.25
19,C11A C20U C34A C53A C94G A121U,-3.61
20,C11A C22G,-4.15
21,C11A C31U C40U G47C C62U G107A,-4.34
22,C11A C40G G42A G71A,-4.67
23,C11A C40U C49U C56A C123G U129A,-3.2
24,C11A C40U G69U A83G G117U G127C U133G,-4.24

row,Variant,polymerase ribozyme fitness (log ratio)
1,C11A C49G G63C C79A,-6.2
2,C11A C49G U129C,-2.01
3,C11A C53G G57A C123G,-1.45
4,C11A C53G G60C G77C C86G,-4.21
5,C11A C53U C56A G63A C76G,-3.79
6,C11A C53U C85A,-3.03
7,C11A C56A A100C,-3.86
8,C11A C56A U81G A84U C101U C115A G120C U134G,0.0951
9,C11A C62U C94A,-2.43
10,C11A C64U,-1.04
11,C11A C72G,-1.14
12,C11A C73A U81C U125A,-3.38
13,C11A C73U C94U,-1.82
14,C11A C115G,-3.42
15,C11A G17C U55C C88U U131G,-5.05
16,C11A G36U G77C,-3.38
17,C11A G39C G110C,-5.5
18,C11A G42A C86U U96A,-4.6
19,C11A G44U C56U,-2.23
20,C11A G45A G60A G113C,-4.47
21,C11A G45A G61A,-1.68
22,C11A G45U A95C G113U,-7.14
23,C11A G48A A50U C70U C97G G122A,-5.3
24,C11A G48U A66U C72A U96G U112C,-2.05

row,Variant,polymerase ribozyme fitness (log ratio)
1,C11A G48U G69U A103C,-3.74
2,C11A G51C,-4.99
3,C11A G52A A68G C101U G117C,-7.38
4,C11A G52A C73G,-2.98
5,C11A G52C U54C C94U G120C,0.0193
6,C11A G57A C73A C88G,-4.51
7,C11A G60C,-1.7
8,C11A G60C A95C,-1.9
9,C11A G60U A74U C88A,-2.8
10,C11A G63U,-1.77
11,C11A G69U C79U C102U,-1.74
12,C11A G69U C94U U130A,-1.6
13,C11A G71A,-1.67
14,C11A G71U,-1.08
15,C11A G77A C82G,-1.88
16,C11A G77U U87G U106G G113C U125G,-4.71
17,C11A G107A,-5.12
18,C11A U14A A18U U55C,-4.98
19,C11A U14G G63A G71A A83G A91C C114U,-5.74
20,C11A U21A C40U G47A C49A G57A G58C G61U,-5.81
21,C11A U33G G69U U106A,-2.62
22,C11A U55G C80U C104U G113A,-4.77
23,C11A U116G,-4.36
24,C11A U132A,-2.12

row,Variant,polymerase ribozyme fitness (log ratio)
1,C11G A16G G60A C64U G110A A118G,-6.79
2,C11G A16U G58C A83C C89U U131A,-3.15
3,C11G A16U G93U A100C C123U,-3.13
4,C11G A18U C72A A91U G110C,-5.23
5,C11G A18U G42C C89A,-0.965
6,C11G A24G C40U A90G U131A,-2.57
7,C11G A27C G48A C94G,-4.21
8,C11G A27C G113C G127C,-5.64
9,C11G A27U G47C A83U,-3.57
10,C11G A29G C49G G93U,-3.07
11,C11G A37C A46U G120C G128C,-0.871
12,C11G A37U G42U,-0.864
13,C11G A37U G71A C79A,-1.37
14,C11G A43G C85A C89G C94U,-2.52
15,C11G A43G U59A,-1.75
16,C11G A50C,-0.589
17,C11G A50C C72A U92G C114A G122C U131C,-3.27
18,C11G A50U A66G U87C C115U A118C,-6.65
19,C11G A50U G93U G113U,-4.55
20,C11G A66C,-0.842
21,C11G A66G C114U C124G,-3.83
22,C11G A68G U81A U106A G110A G113U A121G,-6.2
23,C11G A68U,-4.49
24,C11G A74U C76A U78A C80U G93U G135C,-3.08

row,Variant,polymerase ribozyme fitness (log ratio)
1,C11G A84U,-0.202
2,C11G C12A C49U C85A A91C,-2.76
3,C11G C12A C64U U96C A108G,-2.32
4,C11G C12A G51A C80A U116G,-5.92
5,C11G C12A G69C C104A,-2.8
6,C11G C12G G48U G58U G60U C85A U106G,-4.78
7,C11G C12U G42C G69C,-5.66
8,C11G C13G A50C G110C,-5.28
9,C11G C13U C56U G69A G77C C101A,-5.25
10,C11G C15G G113U,-4.66
11,C11G C20A A26U C85U A90U A121C,-4.44
12,C11G C20A C53G U132A,-2.13
13,C11G C20G C49A G117C,-5.23
14,C11G C20U G63A,-2.21
15,C11G C22U C34A A37U C88A U96G C115U,-7.3
16,C11G C22U G44U,-4.93
17,C11G C28G A105U G110U,-6.33
18,C11G C28U,-2.03
19,C11G C28U C56A G60A U78G,-4.9
20,C11G C31A A41U C70G G113U,-5.92
21,C11G C34U A84C,-3.61
22,C11G C34U C49A C123U,-2.86
23,C11G C34U C86G A119U,-5.27
24,C11G C40A,-1.54

row,Variant,polymerase ribozyme fitness (log ratio)
1,C11G C40A C76G C86U C114U U125C,-5.11
2,C11G C40A G122A G127U,-1.57
3,C11G C40U G47C C56A U92A,-6.34
4,C11G C40U U87G C115U,-0.239
5,C11G C49A G52U U131A,-1.34
6,C11G C53G U96G A105C U112G,-5.28
7,C11G C53U C80U C88A U112C,0.738
8,C11G C53U G61A G107A,-5.9
9,C11G C56G C79U,-0.259
10,C11G C56G U106G,-0.581
11,C11G C56U U87C,0.175
12,C11G C62U,-0.108
13,C11G C64U,-0.506
14,C11G C70G C123U,-0.504
15,C11G C70U,0.101
16,C11G C73A,0.279
17,C11G C73A C82U,-0.161
18,C11G C76A G77A G93U,-1.15
19,C11G C80U,-0.0495
20,C11G C82G G117C,-2.58
21,C11G C85G,-1.55
22,C11G C88G G93C,-3.14
23,C11G C97A C102U,-4.77

# From the RNAGym collection of RNA variant scans (doi:10.1073/pnas.2313332121)
